Experimental findings from patent publication US11834518 (dated 2023) are described below.

T1: STEP32 C/S (human, UniProt P54829)
T1 chain: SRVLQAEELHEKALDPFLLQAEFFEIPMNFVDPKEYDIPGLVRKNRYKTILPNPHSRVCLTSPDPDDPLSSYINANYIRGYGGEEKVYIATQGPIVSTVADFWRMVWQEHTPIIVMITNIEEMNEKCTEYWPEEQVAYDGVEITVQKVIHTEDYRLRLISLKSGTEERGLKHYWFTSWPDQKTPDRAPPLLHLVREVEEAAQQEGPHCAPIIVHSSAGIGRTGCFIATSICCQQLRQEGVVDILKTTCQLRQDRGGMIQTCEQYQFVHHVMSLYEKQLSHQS

T2: STEP32 WT (human, UniProt P54829)
T2 chain: T1 chain with S215C

Where a chain is given by its changes, count along the chain named. Square brackets hold non-standard residues; d marks the D form. Ends that are not written are not given here. F2Pmp = N[C@@H](Cc1ccc(C(F)(F)P(=O)(O)O)cc1)C(=O)O; pY = N[C@@H](Cc1ccc(OP(=O)(O)O)cc1)C(=O)O; AEEA = NCCOCCOCC(=O)O

For the first experiment, the target named is T1, STEP32 C/S. As to the kind of experiment: FP competition.
Consider GYNV[pY] [p-fin 1], for which the IC50 (in general, the concentration at which inhibition is half-maximal) worked out at 8010 nM.

As to DGYNV[pY] [p-fin 2], the IC50 is 7150 nM.

In turn, EGYNV[pY]E [p-fin 4] came in with an IC50 of 1860 nM. Against the preceding molecule, the IC50 is about 3.8-fold lower.

NGYNV[pY] [p-fin 3] showed an IC50 of 8840 nM. This IC50 lies about 4.8-fold higher than the previous one.

[AEEA]EGYNV[pY] [p3Ysh-3] returned an IC50 of 2600 nM.

Take EGYNV[pY]GD [p-fin 5]: the IC50 is 3360 nM.

For another experiment, the target named is T1, STEP32 C/S. As to the kind of experiment: SPR 25C.
With [AEEA]FGYNV[pY]G [p3Ysh-6], binding was put at a Kd of 6130 nM. In other words, the single-digit micromolar range.

Take ATYKEGYNV[pY]G [p3Y]: binding was characterised by a dissociation constant (Kd) of 232 nM. Against the preceding molecule, the Kd is about 26-fold lower.

Regarding [AEEA]YNV[pY]G [p3Ysh-2], the Kd – broadly, the concentration at which binding is half-saturated – amounted to 3960 nM. Compared with the last molecule, the Kd is about 17-fold higher.

The molecule EGYNV[pY]E [p-fin 4] yielded a Kd of 88.4 nM.

[AEEA]NV[pY]G [p3Ysh-1] yielded a Kd of 26000 nM.

For [AEEA]EGYNV[pY] [p3Ysh-3], the Kd came out at 53.1 nM.

Another experiment has as its target T1, STEP32 C/S. As to the kind of experiment: SPR 25C. This is another data set of the same source.
The molecule [AEEA]FGYNV[pY]G [p3Ysh-6] yielded a Kd of 6130 nM.

Take ATYKEGYNV[pY]G [p3Y]: the Kd stood at 240 nM.

The molecule [AEEA]YNV[pY]G [p3Ysh-2] returned a Kd of 3960 nM.

[AEEA]NV[pY]G [p3Ysh-1] gave a dissociation constant (Kd) of 26000 nM.

On to [AEEA]EGYNV[pY] [p3Ysh-3], for which the Kd was determined as 60 nM.

A further experiment addresses T2, STEP32 WT. As to the kind of experiment: SPR 25C.
ATYKEGYNV[F2Pmp]G [3Y-F2Pmp] had a Kd of 270 nM.

EGYNV[F2Pmp] [3Ysh-3-F2Pmp] returned a Kd of 240 nM. The Kd values of the last two molecules are within 1.5-fold of each other.

Another experiment addresses T1, STEP32 C/S. As to the kind of experiment: FP competition. This is another data set of the same source.
Consider [AEEA]FGYNV[pY]G [p3Ysh-6], for which the affinity corresponds to a Ki of 6960 nM.

Turning to ATYKEGYNV[pY]G [p3Y], the Ki (commonly a dissociation constant, usually derived from enzyme kinetics or from competition with a known ligand) came to 2360 nM.

Molecule [AEEA]YNV[pY]G [p3Ysh-2] registered a Ki of 13100 nM.

Regarding [AEEA]NS[pY]G [p3Ysh-4], affinity was put at a Ki of 13700 nM.

With [AEEA]FS[pY]G [p3Ysh-7], the affinity corresponds to a Ki of 4570 nM.

[AEEA]NV[pY]G [p3Ysh-1]: affinity was put at a Ki of 4990 nM.

[AEEA]YV[pY]G [p3Ysh-5] gave an inhibition constant (Ki) of 5340 nM.

Molecule [AEEA]EGYNV[pY] [p3Ysh-3] returned a Ki of 1640 nM. This Ki lies about 3.3-fold lower than the previous one.

A further experiment concerns the target T1, STEP32 C/S. As to the kind of experiment: SPR 25C. This is another data set of the same source.
Turning to EGYNV[pY]E [p-fin 4], the dissociation constant Kd amounted to 90 nM.

The next experiment addresses T1, STEP32 C/S. As to the kind of experiment: FP competition. This is another data set of the same source.
For ATYKEGYNV[pY]G [p3Y], the affinity corresponds to a Ki of 2820 nM.

As for ATYKEGANV[pY]G [p3YAla7], affinity was put at a Ki of 4450 nM.

Turning to ATYKEGYNA[pY]G [p3YAla9], the Ki was 5940 nM.

The molecule ATYAEGYNV[pY]G [p3YAla4] showed a Ki of 2530 nM.

Turning to ATAKEGYNV[pY]G [p3YAla3], the inhibitory constant (Ki) turned out to be 4810 nM. Against the preceding molecule, the Ki is about 1.9-fold higher.

As to ATYKAGYNV[pY]G [p3YAla5], the Ki worked out at 4140 nM. The Ki values of the last two molecules are within 1.5-fold of each other.

For the molecule ATYKEGYNV[pY]A [p3YAla10], the Ki is 2710 nM.

ATYKEAYNV[pY]G [p3YAla6] had a Ki of 2310 nM.

Turning to AAYKEGYNV[pY]G [p3YAla2], the Ki was determined as 1620 nM.

The molecule ATYKEGYAV[pY]G [p3YAla8] displayed a Ki of 2470 nM.

The next experiment addresses T1, STEP32 C/S. As to the kind of experiment: FP competition. This is another data set of the same source.
Consider GYNV[pY] [p-fin 1], for which affinity was put at a Ki of 1900 nM.

In turn, DGYNV[pY] [p-fin 2] came in with a Ki of 1850 nM. This Ki and that of the molecule before are within 1.5-fold of each other.

Regarding EGYNV[pY]E [p-fin 4], the affinity, expressed as Ki, was 360 nM.

Regarding NGYNV[pY] [p-fin 3], the Ki was 2160 nM. This Ki is about 6-fold higher than that of the molecule before.

In the case of [AEEA]EGYNV[pY] [p3Ysh-3], the Ki was 690 nM.

With EGYNV[pY]GD [p-fin 5], the Ki worked out at 760 nM. The Ki values of the last two molecules are within 1.5-fold of each other.

The target of a further experiment is T2, STEP32 WT. As to the kind of experiment: SPR 25C. This is another data set of the same source.
ATYKEGYNV[F2Pmp]G [3Y-F2Pmp] yielded a Kd of 268 nM.

For the molecule EGYNV[F2Pmp] [3Ysh-3-F2Pmp], the Kd amounted to 242 nM. The Kd values of the last two molecules are within 1.5-fold of each other.

The next experiment deals with T1, STEP32 C/S. As to the kind of experiment: SPR 25C. The source holds these as a separate data set.
With [AEEA]NS[pY]G [p3Ysh-4], the binding result is on record as “no binding”.

For [AEEA]FS[pY]G [p3Ysh-7], the binding result was “no binding”.
